Data: PMC2148133

Target: Xklp2 (Xenopus kinesin-like protein 2), endogenous full-length protein (Xenopus (endogenous in Xenopus egg extract)) (UniProt Q91785)
Experiment: SEC + other: sucrose gradient centrifugation

stoichiometry N: 2
Substance: Xklp2 (Xenopus kinesin-like protein 2), endogenous full-length protein (from UniProt Q91785 1-1388) (natural protein)
